Assay results published in PMC8648840, “Functional consequences of TCF4 missense substitutions associated with Pitt-Hopkins syndrome, mild intellectual disability, and schizophrenia” (The Journal of Biological Chemistry, 2021).

T1: achaete-scute homolog 1 (ASCL1), expressed in cells (UniProt P50553 1-236)
T1 sequence (looked up): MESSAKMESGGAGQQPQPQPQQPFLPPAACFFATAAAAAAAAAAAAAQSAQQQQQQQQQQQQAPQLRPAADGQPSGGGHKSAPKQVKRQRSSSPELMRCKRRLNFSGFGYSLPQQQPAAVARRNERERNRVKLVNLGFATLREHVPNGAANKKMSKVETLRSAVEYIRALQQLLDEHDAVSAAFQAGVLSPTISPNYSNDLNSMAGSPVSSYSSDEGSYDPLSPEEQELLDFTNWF


Molecular target: T1, achaete-scute homolog 1 (ASCL1), …
Assay: cell-based or functional assay

| luciferase reporter (12 μE5 E-boxes, TK promoter) in depolarized rat primary neurons; increase when ASCL1 was coexpressed [fold] | luciferase reporter (12 μE5 E-boxes, minimal promoter) in HEK293 cells, coexpressed with ASCL1; reduction against WT TCF4-B¯ [fold] | luciferase reporter (12 μE5 E-boxes, minimal promoter) in HEK293 cells, coexpressed with ASCL1; increase against WT TCF4-B¯ [fold] | luciferase reporter in rat primary neurons, basal conditions, coexpressed with ASCL1; increase against WT TCF4-B¯ [fold] | Binder |
| --- | --- | --- | --- | --- |
| 2.5 |  |  |  | Transcription factor 4 isoform TCF4-A¯, wild type (natural protein, human, UniProt P15884-6 1-507, looked up) MYCAYTIPGMGGNSLMYYYNGKAVYAPSASTADYNRDSPGYPSSKPATSTFPSSFFMQDGHHSSDPWSSSSGMNQPGYAGMLGNSSHIPQSSSYCSLHPHERLSYPSHSSADINSSLPPMSTFHRSGTNHYSTSSCTPPANGTDSIMANRGSGAAGSSQTGDALGKALASIYSPDHTNNSFSSNPSTPVGSPPSLSAGTAVWSRNGGQASSSPNYEGPLHSLQSRIEDRLERLDDAIHVLRNHAVGPSTAMPGGHGDMHGIIGPSHNGAMGGLGSGYGTGLLSANRHSLMVGTHREDGVALRGSHSLLPNQVPVPQLPVQSATSPDLNPPQDPYRGMPPGLQGQSVSSGSSEIKSDDEGDENLQDTKSSEDKKLDDDKKDIKSITSNNDDEDLTPEQKAEREKERRMANNARERLRVRDINEAFKELGRMVQLHLKSDKPQTKLLILHQAVAVILSLEQQVRERNLNPKAACLKRREEEKVSSEPPPLSLAGPHPGMGDASNHMGQM |
|  | 4.8 |  |  | TCF4-B¯ A587P (natural protein, human, UniProt P15884-3 1-671, looked up) MHHQQRMAALGTDKELSDLLDFSAMFSPPVSSGKNGPTSLASGHFTGSNVEDRSSSGSWGNGGHPSPSRNYGDGTPYDHMTSRDLGSHDNLSPPFVNSRIQSKTERGSYSSYGRESNLQGCHQQSLLGGDMDMGNPGTLSPTKPGSQYYQYSSNNPRRRPLHSSAMEVQTKKVRKVPPGLPSSVYAPSASTADYNRDSPGYPSSKPATSTFPSSFFMQDGHHSSDPWSSSSGMNQPGYAGMLGNSSHIPQSSSYCSLHPHERLSYPSHSSADINSSLPPMSTFHRSGTNHYSTSSCTPPANGTDSIMANRGSGAAGSSQTGDALGKALASIYSPDHTNNSFSSNPSTPVGSPPSLSAGTAVWSRNGGQASSSPNYEGPLHSLQSRIEDRLERLDDAIHVLRNHAVGPSTAMPGGHGDMHGIIGPSHNGAMGGLGSGYGTGLLSANRHSLMVGTHREDGVALRGSHSLLPNQVPVPQLPVQSATSPDLNPPQDPYRGMPPGLQGQSVSSGSSEIKSDDEGDENLQDTKSSEDKKLDDDKKDIKSITSNNDDEDLTPEQKAEREKERRMANNARERLRVRDINEPFKELGRMVQLHLKSDKPQTKLLILHQAVAVILSLEQQVRERNLNPKAACLKRREEEKVSSEPPPLSLAGPHPGMGDASNHMGQM |
|  |  | 2.2 | 2.8 | TCF4-B¯ R569W (natural protein, human, UniProt P15884-3 1-671, looked up) MHHQQRMAALGTDKELSDLLDFSAMFSPPVSSGKNGPTSLASGHFTGSNVEDRSSSGSWGNGGHPSPSRNYGDGTPYDHMTSRDLGSHDNLSPPFVNSRIQSKTERGSYSSYGRESNLQGCHQQSLLGGDMDMGNPGTLSPTKPGSQYYQYSSNNPRRRPLHSSAMEVQTKKVRKVPPGLPSSVYAPSASTADYNRDSPGYPSSKPATSTFPSSFFMQDGHHSSDPWSSSSGMNQPGYAGMLGNSSHIPQSSSYCSLHPHERLSYPSHSSADINSSLPPMSTFHRSGTNHYSTSSCTPPANGTDSIMANRGSGAAGSSQTGDALGKALASIYSPDHTNNSFSSNPSTPVGSPPSLSAGTAVWSRNGGQASSSPNYEGPLHSLQSRIEDRLERLDDAIHVLRNHAVGPSTAMPGGHGDMHGIIGPSHNGAMGGLGSGYGTGLLSANRHSLMVGTHREDGVALRGSHSLLPNQVPVPQLPVQSATSPDLNPPQDPYRGMPPGLQGQSVSSGSSEIKSDDEGDENLQDTKSSEDKKLDDDKKDIKSITSNNDDEDLTPEQKAEREKEWRMANNARERLRVRDINEAFKELGRMVQLHLKSDKPQTKLLILHQAVAVILSLEQQVRERNLNPKAACLKRREEEKVSSEPPPLSLAGPHPGMGDASNHMGQM |
|  |  | 1.6 | 2.4 | TCF4-B¯ N585D (natural protein, human, UniProt P15884-3 1-671, looked up) MHHQQRMAALGTDKELSDLLDFSAMFSPPVSSGKNGPTSLASGHFTGSNVEDRSSSGSWGNGGHPSPSRNYGDGTPYDHMTSRDLGSHDNLSPPFVNSRIQSKTERGSYSSYGRESNLQGCHQQSLLGGDMDMGNPGTLSPTKPGSQYYQYSSNNPRRRPLHSSAMEVQTKKVRKVPPGLPSSVYAPSASTADYNRDSPGYPSSKPATSTFPSSFFMQDGHHSSDPWSSSSGMNQPGYAGMLGNSSHIPQSSSYCSLHPHERLSYPSHSSADINSSLPPMSTFHRSGTNHYSTSSCTPPANGTDSIMANRGSGAAGSSQTGDALGKALASIYSPDHTNNSFSSNPSTPVGSPPSLSAGTAVWSRNGGQASSSPNYEGPLHSLQSRIEDRLERLDDAIHVLRNHAVGPSTAMPGGHGDMHGIIGPSHNGAMGGLGSGYGTGLLSANRHSLMVGTHREDGVALRGSHSLLPNQVPVPQLPVQSATSPDLNPPQDPYRGMPPGLQGQSVSSGSSEIKSDDEGDENLQDTKSSEDKKLDDDKKDIKSITSNNDDEDLTPEQKAEREKERRMANNARERLRVRDIDEAFKELGRMVQLHLKSDKPQTKLLILHQAVAVILSLEQQVRERNLNPKAACLKRREEEKVSSEPPPLSLAGPHPGMGDASNHMGQM |
|  | 1.4 |  |  | TCF4-B¯ S253R (natural protein, human, UniProt P15884-3 1-671, looked up) MHHQQRMAALGTDKELSDLLDFSAMFSPPVSSGKNGPTSLASGHFTGSNVEDRSSSGSWGNGGHPSPSRNYGDGTPYDHMTSRDLGSHDNLSPPFVNSRIQSKTERGSYSSYGRESNLQGCHQQSLLGGDMDMGNPGTLSPTKPGSQYYQYSSNNPRRRPLHSSAMEVQTKKVRKVPPGLPSSVYAPSASTADYNRDSPGYPSSKPATSTFPSSFFMQDGHHSSDPWSSSSGMNQPGYAGMLGNSSHIPQSSRYCSLHPHERLSYPSHSSADINSSLPPMSTFHRSGTNHYSTSSCTPPANGTDSIMANRGSGAAGSSQTGDALGKALASIYSPDHTNNSFSSNPSTPVGSPPSLSAGTAVWSRNGGQASSSPNYEGPLHSLQSRIEDRLERLDDAIHVLRNHAVGPSTAMPGGHGDMHGIIGPSHNGAMGGLGSGYGTGLLSANRHSLMVGTHREDGVALRGSHSLLPNQVPVPQLPVQSATSPDLNPPQDPYRGMPPGLQGQSVSSGSSEIKSDDEGDENLQDTKSSEDKKLDDDKKDIKSITSNNDDEDLTPEQKAEREKERRMANNARERLRVRDINEAFKELGRMVQLHLKSDKPQTKLLILHQAVAVILSLEQQVRERNLNPKAACLKRREEEKVSSEPPPLSLAGPHPGMGDASNHMGQM |
